Assay results: patent US20240109954A1 (GENERAL HOSPITAL, published 2024)

T1: mouse FcγRIV (mouse, UniProt A0A0B4J1G0 21-203)
T1 construct: also called mFcγRIV
T1 sequence: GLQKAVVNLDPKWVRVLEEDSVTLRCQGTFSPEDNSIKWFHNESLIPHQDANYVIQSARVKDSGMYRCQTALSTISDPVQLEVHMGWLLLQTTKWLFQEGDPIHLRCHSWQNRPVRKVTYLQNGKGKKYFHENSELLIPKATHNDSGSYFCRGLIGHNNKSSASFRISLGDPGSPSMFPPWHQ

B1: VIC16-DVNH (antibody)
heavy: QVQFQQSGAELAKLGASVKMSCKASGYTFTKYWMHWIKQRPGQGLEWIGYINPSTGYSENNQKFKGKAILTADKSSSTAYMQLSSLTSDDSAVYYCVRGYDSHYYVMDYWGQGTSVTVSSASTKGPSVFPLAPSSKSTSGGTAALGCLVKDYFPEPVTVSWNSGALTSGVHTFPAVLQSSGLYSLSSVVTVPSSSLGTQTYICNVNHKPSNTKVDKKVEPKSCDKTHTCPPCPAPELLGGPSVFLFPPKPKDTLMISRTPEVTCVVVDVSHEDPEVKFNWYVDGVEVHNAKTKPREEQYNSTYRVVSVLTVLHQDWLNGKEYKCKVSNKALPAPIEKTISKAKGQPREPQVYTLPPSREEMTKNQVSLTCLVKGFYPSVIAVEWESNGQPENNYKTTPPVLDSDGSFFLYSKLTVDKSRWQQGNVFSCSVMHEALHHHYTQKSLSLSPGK
light: DIVITQDTASLAVSRGQRATISCRASESVEYYGTTLMQWYQQRPGQPPKLLIYGASNVESGVPARFSGSGSGTDFSLNIHPVEEDDIAMYFCQQSRKVPYTFGGGTKLEIKRTVAAPSVFIFPPSDEQLKSGTASVVCLLNNFYPREAKVQWKVDNALQSGNSQESVTEQDSKDSTYSLSSTLTLSKADYEKHKVYACEVTHQGLSSPVTKSFNRGEC
B2: VIC16-SELF (antibody)
heavy: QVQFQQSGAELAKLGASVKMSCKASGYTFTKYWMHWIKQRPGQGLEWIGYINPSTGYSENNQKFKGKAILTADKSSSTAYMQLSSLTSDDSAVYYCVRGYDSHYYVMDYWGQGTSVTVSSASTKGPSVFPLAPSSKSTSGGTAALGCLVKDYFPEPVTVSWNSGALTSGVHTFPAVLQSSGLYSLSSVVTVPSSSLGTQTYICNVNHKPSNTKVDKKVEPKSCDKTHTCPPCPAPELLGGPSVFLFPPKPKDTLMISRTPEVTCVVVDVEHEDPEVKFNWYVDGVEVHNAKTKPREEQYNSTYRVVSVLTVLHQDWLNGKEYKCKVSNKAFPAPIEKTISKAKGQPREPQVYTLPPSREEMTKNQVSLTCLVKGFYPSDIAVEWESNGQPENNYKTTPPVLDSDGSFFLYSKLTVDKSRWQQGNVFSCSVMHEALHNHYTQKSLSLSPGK
light: B1 light
B3: VIC16-MLNS (antibody)
heavy: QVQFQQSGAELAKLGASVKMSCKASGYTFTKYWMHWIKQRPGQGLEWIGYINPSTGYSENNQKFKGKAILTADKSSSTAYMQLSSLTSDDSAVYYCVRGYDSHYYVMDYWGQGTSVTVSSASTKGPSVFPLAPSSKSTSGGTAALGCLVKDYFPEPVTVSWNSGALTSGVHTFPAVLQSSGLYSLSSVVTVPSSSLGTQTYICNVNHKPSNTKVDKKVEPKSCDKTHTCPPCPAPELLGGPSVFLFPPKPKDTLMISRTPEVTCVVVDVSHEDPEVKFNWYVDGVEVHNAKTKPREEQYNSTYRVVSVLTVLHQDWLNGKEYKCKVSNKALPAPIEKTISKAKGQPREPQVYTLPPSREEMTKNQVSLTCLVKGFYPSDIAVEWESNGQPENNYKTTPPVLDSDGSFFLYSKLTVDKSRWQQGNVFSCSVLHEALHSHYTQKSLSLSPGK
light: B1 light
B4: VIC16-K326W (antibody)
heavy: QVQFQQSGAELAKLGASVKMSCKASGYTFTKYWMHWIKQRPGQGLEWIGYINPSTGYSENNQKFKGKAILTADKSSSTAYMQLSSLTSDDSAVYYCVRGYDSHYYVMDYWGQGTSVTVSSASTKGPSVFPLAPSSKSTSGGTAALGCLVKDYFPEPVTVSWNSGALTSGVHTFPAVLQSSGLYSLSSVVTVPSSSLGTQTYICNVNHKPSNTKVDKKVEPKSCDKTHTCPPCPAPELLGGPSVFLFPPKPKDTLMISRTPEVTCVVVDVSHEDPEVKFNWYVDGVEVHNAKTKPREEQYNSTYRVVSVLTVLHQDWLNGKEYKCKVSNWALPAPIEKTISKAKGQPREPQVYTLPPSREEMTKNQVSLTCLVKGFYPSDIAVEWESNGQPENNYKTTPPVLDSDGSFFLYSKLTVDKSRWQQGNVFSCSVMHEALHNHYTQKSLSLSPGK
light: B1 light

Each binder was assayed against T1, mouse FcγRIV (assay: SPR (IBIS MX96): mAb printed on the chip, recombinant FcγR injected at 10 to 0.005 µM; axis 'KD, M^-1', that is the reciprocal of KD).
B1: binds. B2: binds. B3: binds. B4: binds.
